Assay results as given in article PMC7367873, “Dissecting the sequence determinants for dephosphorylation by the catalytic subunits of phosphatases PP1 and PP2A” (Nature Communications, 2020).

B1: PHLDB2 (protein, UniProt Q86SQ0 1-1253, looked up)
Pleckstrin homology-like …: MEEHSYIQKELDLQNGSLEEDSVVHSVENDSQNMMESLSPKKYSSSLRFKANGDYSGSYLTLSQPVPAKRSPSPLGTSVRSSPSLAKIQGSKQFSYDGTDKNIPMKPPTPLLNTTSSLSGYPLGRADFDHYTGRDSERALRLSEKPPYSKYSSRHKSHDNVYSLGGLEGRKASGSLLAMWNGSSLSDAGPPPISRSGAASMPSSPKQARKMSIQDSLALQPKLTRHKELASENINLRTRKYSSSSLSHMGAYSRSLPRLYRATENQLTPLSLPPRNSLGNSKRTKLGEKDLPHSVIDNDNYLNFSSLSSGALPYKTSASEGNPYVSSTLSVPASPRVARKMLLASTSSCASDDFDQASYVGTNPSHSLLAGESDRVFATRRNFSCGSVEFDEADLESLRQASGTPQPALRERKSSISSISGRDDLMDYHRRQREERLREQEMERLERQRLETILSLCAEYTKPDSRLSTGTTVEDVQKINKELEKLQLSDEESVFEEALMSPDTRYRCHRKDSLPDADLASCGSLSQSSASFFTPRSTRNDELLSDLTRTPPPPSSTFPKASSESSYLSILPKTPEGISEEQRSQELAAMEETRIVILNNLEELKQKIKDINDQMDESFRELDMECALLDGEQKSETTELMKEKEILDHLNRKIAELEKNIVGEKTKEKVKLDAEREKLERLQELYSEQKTQLDNCPESMREQLQQQLKRDADLLDVESKHFEDLEFQQLEHESRLDEEKENLTQQLLREVAEYQRNIVSRKEKISALKKQANHIVQQAQREQDHFVKEKNNLIMMLQREKENLCNLEKKYSSLSGGKGFPVNPNTLKEGYISVNEINEPCGNSTNLSPSTQFPADADAVATEPATAVLASQPQSKEHFRSLEERKKQHKEGLYLSDTLPRKKTTSSISPHFSSATMGRSITPKAHLPLGQSNSCGSVLPPSLAAMAKDSESRRMLRGYNHQQMSEGHRQKSEFYNRTASESNVYLNSFHYPDHSYKDQAFDTLSLDSSDSMETSISACSPDNISSASTSNIARIEEMERLLKQAHAEKTRLLESREREMEAKKRALEEEKRRREILEKRLQEETSQRQKLIEKEVKIRERQRAQARPLTRYLPVRKEDFDLRSHVETAGHNIDTCYHVSITEKTCRGFLIKMGGKIKTWKKRWFVFDRNKRTFSYYADKHETKLKGVIYFQAIEEVYYDHLKNANKSPNPLLTFSVKTHDRIYYMVAPSPEAMRIWMDVIVTGAEGYTHFLL
B2: PABPC4 (protein, UniProt Q13310 1-644, looked up)
Polyadenylate-binding protein …: MNAAASSYPMASLYVGDLHSDVTEAMLYEKFSPAGPVLSIRVCRDMITRRSLGYAYVNFQQPADAERALDTMNFDVIKGKPIRIMWSQRDPSLRKSGVGNVFIKNLDKSIDNKALYDTFSAFGNILSCKVVCDENGSKGYAFVHFETQEAADKAIEKMNGMLLNDRKVFVGRFKSRKEREAELGAKAKEFTNVYIKNFGEEVDDESLKELFSQFGKTLSVKVMRDPNGKSKGFGFVSYEKHEDANKAVEEMNGKEISGKIIFVGRAQKKVERQAELKRKFEQLKQERISRYQGVNLYIKNLDDTIDDEKLRKEFSPFGSITSAKVMLEDGRSKGFGFVCFSSPEEATKAVTEMNGRIVGSKPLYVALAQRKEERKAHLTNQYMQRVAGMRALPANAILNQFQPAAGGYFVPAVPQAQGRPPYYTPNQLAQMRPNPRWQQGGRPQGFQGMPSAIRQSGPRPTLRHLAPTGSECPDRLAMDFGGAGAAQQGLTDSCQSGGVPTAVQNLAPRAAVAAAAPRAVAPYKYASSVRSPHPAIQPLQAPQPAVHVQGQEPLTASMLAAAPPQEQKQMLGERLFPLIQTMHSNLAGKITGMLLEIDNSELLHMLESPESLRSKVDEAVAVLQAHHAKKEAAQKVGAVAAATS
B3: FUBP3 (protein, UniProt Q96I24 2-572, looked up)
Far upstream element-binding …: AELVQGQSAPVGMKAEGFVDALHRVRQIAAKIDSIPHLNNSTPLVDPSVYGYGVQKRPLDDGVGNQLGALVHQRTVITEEFKVPDKMVGFIIGRGGEQISRIQAESGCKIQIASESSGIPERPCVLTGTPESIEQAKRLLGQIVDRCRNGPGFHNDIDSNSTIQEILIPASKVGLVIGRGGETIKQLQERTGVKMVMIQDGPLPTGADKPLRITGDAFKVQQAREMVLEIIREKDQADFRGVRGDFNSRMGGGSIEVSVPRFAVGIVIGRNGEMIKKIQNDAGVRIQFKPDDGISPERAAQVMGPPDRCQHAAHIISELILTAQERDGFGGLAAARGRGRGRGDWSVGAPGGVQEITYTVPADKCGLVIGKGGENIKSINQQSGAHVELQRNPPPNSDPNLRRFTIRGVPQQIEVARQLIDEKVGGTNLGAPGAFGQSPFSQPPAPPHQNTFPPRSSGCFPNMAAKVNGNPHSTPVSGPPAFLTQGWGSTYQAWQQPTQQVPSQQSQPQSSQPNYSKAWEDYYKKQSHAASAAPQASSPPDYTMAWAEYYRQQVAFYGQTLGQAQAHSQEQ
B4: STT3A (protein, UniProt P46977 1-705, looked up)
Dolichyl-diphosphooligosacchar …: MTKFGFLRLSYEKQDTLLKLLILSMAAVLSFSTRLFAVLRFESVIHEFDPYFNYRTTRFLAEEGFYKFHNWFDDRAWYPLGRIIGGTIYPGLMITSAAIYHVLHFFHITIDIRNVCVFLAPLFSSFTTIVTYHLTKELKDAGAGLLAAAMIAVVPGYISRSVAGSYDNEGIAIFCMLLTYYMWIKAVKTGSICWAAKCALAYFYMVSSWGGYVFLINLIPLHVLVLMLTGRFSHRIYVAYCTVYCLGTILSMQISFVGFQPVLSSEHMAAFGVFGLCQIHAFVDYLRSKLNPQQFEVLFRSVISLVGFVLLTVGALLMLTGKISPWTGRFYSLLDPSYAKNNIPIIASVSEHQPTTWSSYYFDLQLLVFMFPVGLYYCFSNLSDARIFIIMYGVTSMYFSAVMVRLMLVLAPVMCILSGIGVSQVLSTYMKNLDISRPDKKSKKQQDSTYPIKNEVASGMILVMAFFLITYTFHSTWVTSEAYSSPSIVLSARGGDGSRIIFDDFREAYYWLRHNTPEDAKVMSWWDYGYQITAMANRTILVDNNTWNNTHISRVGQAMASTEEKAYEIMRELDVSYVLVIFGGLTGYSSDDINKFLWMVRIGGSTDTGKHIKENDYYTPTGEFRVDREGSPVLLNCLMYKMCYYRFGQVYTEAKRPPGFDRVRNAEIGNKDFELDVLEEAYTTEHWLVRIYKVKDLDNRGLSRT
B5: DDX5 (protein, UniProt P17844 1-614, looked up)
Probable ATP-dependent RNA …: MSGYSSDRDRGRDRGFGAPRFGGSRAGPLSGKKFGNPGEKLVKKKWNLDELPKFEKNFYQEHPDLARRTAQEVETYRRSKEITVRGHNCPKPVLNFYEANFPANVMDVIARQNFTEPTAIQAQGWPVALSGLDMVGVAQTGSGKTLSYLLPAIVHINHQPFLERGDGPICLVLAPTRELAQQVQQVAAEYCRACRLKSTCIYGGAPKGPQIRDLERGVEICIATPGRLIDFLECGKTNLRRTTYLVLDEADRMLDMGFEPQIRKIVDQIRPDRQTLMWSATWPKEVRQLAEDFLKDYIHINIGALELSANHNILQIVDVCHDVEKDEKLIRLMEEIMSEKENKTIVFVETKRRCDELTRKMRRDGWPAMGIHGDKSQQERDWVLNEFKHGKAPILIATDVASRGLDVEDVKFVINYDYPNSSEDYIHRIGRTARSTKTGTAYTFFTPNNIKQVSDLISVLREANQAINPKLLQLVEDRGSGRSRGRGGMKDDRRDRYSAGKRGGFNTFRDRENYDRGYSSLLKRDFGAKTQNGVYSAANYTNGSFGSNFVSAGIQTSFRTGNPTGTYQNGYDSTQQYGSNVPNMHNGMNQQAYAYPATAAAPMIGYPMPTGYSQ
B6: PKP2 (protein, UniProt Q99959 1-881, looked up)
Plakophilin-2: MAAPGAPAEYGYIRTVLGQQILGQLDSSSLALPSEAKLKLAGSSGRGGQTVKSLRIQEQVQQTLARKGRSSVGNGNLHRTSSVPEYVYNLHLVENDFVGGRSPVPKTYDMLKAGTTATYEGRWGRGTAQYSSQKSVEERSLRHPLRRLEISPDSSPERAHYTHSDYQYSQRSQAGHTLHHQESRRAALLVPPRYARSEIVGVSRAGTTSRQRHFDTYHRQYQHGSVSDTVFDSIPANPALLTYPRPGTSRSMGNLLEKENYLTAGLTVGQVRPLVPLQPVTQNRASRSSWHQSSFHSTRTLREAGPSVAVDSSGRRAHLTVGQAAAGGSGNLLTERSTFTDSQLGNADMEMTLERAVSMLEADHMLPSRISAAATFIQHECFQKSEARKRVNQLRGILKLLQLLKVQNEDVQRAVCGALRNLVFEDNDNKLEVAELNGVPRLLQVLKQTRDLETKKQITDHTVNLRSRNGWPGAVAHACNPSTLGGQGGRITRSGVRDQPDQHGLLWNLSSNDKLKNLMITEALLTLTENIIIPFSGWPEGDYPKANGLLDFDIFYNVTGCLRNMSSAGADGRKAMRRCDGLIDSLVHYVRGTIADYQPDDKATENCVCILHNLSYQLEAELPEKYSQNIYIQNRNIQTDNNKSIGCFGSRSRKVKEQYQDVPMPEEKSNPKGVEWLWHSIVIRMYLSLIAKSVRNYTQEASLGALQNLTAGSGPMPTSVAQTVVQKESGLQHTRKMLHVGDPSVKKTAISLLRNLSRNLSLQNEIAKETLPDLVSIIPDTVPSTDLLIETTASACYTLNNIIQNSYQNARDLLNTGGIQKIMAISAGDAYASNKASKAASVLLYSLWAHTELHHAYKKAQFKKTDFVNSRTAKAYHSLKD
B7: RBM39 (protein, UniProt Q14498 2-530, looked up)
RNA-binding protein 39: ADDIDIEAMLEAPYKKDENKLSSANGHEERSKKRKKSKSRSRSHERKRSKSKERKRSRDRERKKSKSRERKRSRSKERRRSRSRSRDRRFRGRYRSPYSGPKFNSAIRGKIGLPHSIKLSRRRSRSKSPFRKDKSPVREPIDNLTPEERDARTVFCMQLAARIRPRDLEEFFSTVGKVRDVRMISDRNSRRSKGIAYVEFVDVSSVPLAIGLTGQRVLGVPIIVQASQAEKNRAAAMANNLQKGSAGPMRLYVGSLHFNITEDMLRGIFEPFGRIESIQLMMDSETGRSKGYGFITFSDSECAKKALEQLNGFELAGRPMKVGHVTERTDASSASSFLDSDELERTGIDLGTTGRLQLMARLAEGTGLQIPPAAQQALQMSGSLAFGAVAEFSFVIDLQTRLSQQTEASALAAAASVQPLATQCFQLSNMFNPQTEEEVGWDTEIKDDVIEECNKHGGVIHIYVDKNSAQGNVYVKCPSIAAAIAAVNALHGRWFAGKMITAAYVPLPTYHNLFPDSMTATQLLVPSRR
B8: ATP5C1 (protein, UniProt P36542 26-298, looked up)
ATP synthase F(1) complex …: ATLKDITRRLKSIKNIQKITKSMKMVAAAKYARAERELKPARIYGLGSLALYEKADIKGPEDKKKHLLIGVSSDRGLCGAIHSSIAKQMKSEVATLTAAGKEVMLVGIGDKIRGILYRTHSDQFLVAFKEVGRKPPTFGDASVIALELLNSGYEFDEGSIIFNKFRSVISYKTEEKPIFSLNTVASADSMSIYDDIDADVLQNYQEYNLANIIYYSLKESTTSEQSARMTAMDNASKNASEMIDKLTLTFNRTRQAVITKELIEIISGAAALD

Tested on: GFP-14-3-3β and its binding proteins
Experiment: GFP-14-3-3β co-IP with LC-MS/MS label-free quantification, untreated versus PP1c-treated
Design: species or system human
Details: PP1 vs untreated; LFQ intensities; 3 replicates each

In order of rising “Difference (log2), PP1 vs untreated” value:
1. B8  0.4773 log2
2. B7  0.4791 log2
3. B6  0.4916 log2
4. B5  0.5082 log2
5. B4  0.5123 log2
6. B3  0.5248 log2
7. B2  0.5259 log2
8. B1  0.5277 log2

Tested on: GFP-14-3-3β
Experiment: GFP-14-3-3β co-IP with LC-MS/MS, untreated GFP-14-3-3β versus GFP control (14-3-3 interactome)
Type: binding, human
Details: untreated vs GFP; LFQ intensities; 3 replicates each

In order of falling “Difference (log2), untreated vs GFP” value:
1. B2  2.4022 log2
2. B6  1.704 log2
3. B1  1.653 log2
4. B8  1.174 log2
5. B7  0.5608 log2
6. B4  0.4915 log2
7. B3  0.3039 log2
8. B5  0.1802 log2
